B1: E3 ubiquitin-protein ligase Midline-1, residues 172 to 214; numbered along this chain, O15344 (parent)
chain: GLMCLEHEDEKVNMYCVTDDQLICALCKLVGRHRDHQVAALSE

Variants of: B1
Test: abundance fitness (aPCA) (normalised: wild type 0, dead -1); higher = more abundant; growth selection in yeast, the domain comes from the species named
Settings: Homo sapiens

Abundance fitness of substitutions, site by site:
L2: T 0.51 | D 0.674 | F -0.298 | E 0.611 | Y 0.109 | I 0.257 | K 0.795 | V 0.233 | C 0.19 | Q 0.063 | A 0.483 | M 0.544 | H 0.147 | S 0.279
G1: V -0.211 | R -0.081 | E 0.134 | T -0.235 | A -0.361 | D 0.306 | W -0.611 | K 0.061 | P -0.112 | S -0.184 | Y -0.192
E6: G -0.438 | Q -0.036 | W -0.374 | A -0.085 | D -0.132 | L -0.14 | P -0.843 | V -0.183 | F 0.023 | S 0.039 | K -0.206 | N -0.226 | T 0.001 | H 0.063 | R -0.297 | C -0.447 | Y -0.276 | I 0.126
D9: R 0.027 | E -0.378 | C 0.13 | S 0.02 | P -0.088 | K -0.38 | Q 0.116 | H -0.107 | V -0.086 | L 0.084 | W -0.052 | T -0.24 | M 0.246 | I 0.042 | F 0.173 | Y -0.113 | G 0.031 | N 0.636 | A -0.418
L5: C 0.055 | D 0.039 | I -0.435 | V -0.165 | G -0.092 | W -0.482 | Q -0.155 | T -0.039 | K 0.142 | N -0.124 | S -0.012 | A 0.023 | R -0.062 | E 0.074 | P 0.058 | H -0.037 | Y -0.021 | F -0.13
H7: A -0.703 | Y -0.637 | L -1.03 | T -0.492 | Q -0.551 | W -0.89 | E -0.433 | K -0.604 | V -1.34 | G -0.5 | C -0.466 | S -0.765 | M -0.66 | R -0.646
E10: R -0.046 | D -0.164 | S -0.079 | F -0.136 | C -0.062 | V -0.414 | T -0.204 | W -0.247 | G -0.316 | L -0.214 | P -0.498 | A -0.133 | N 0.093 | M -0.029 | H 0.066 | K 0.063 | Q -0.181
C4: W -0.439 | G -0.713 | Y -0.594 | T -0.078 | A -0.699 | P -1.18 | H -0.221 | R -0.647 | S -0.295 | Q -0.314 | V -0.944 | E -0.441 | D -0.343
E8: T 0.398 | Q 0.051 | L 0.108 | N -0.137 | P 0.186 | C 0.16 | H 0.056 | R 0.116 | F -0.144 | D -0.165 | S 0.375 | V 0.072 | I -0.139 | Y -0.243 | A 0.179 | W -0.348 | K 0.221
M3: K -0.006 | L -0.05 | A -0.022 | H 0.14 | Q -0.276 | V -0.144 | I 0.089 | C -0.21 | Y -0.229 | P -0.309 | D 0.018 | S 0.006 | F 0.111 | R -0.101 | N 0.019 | T -0.166 | E -0.332 | W -0.333
K11: D -0.258 | G -0.186 | E 0.033 | C 0.148 | F -0.132 | A -0.107 | H 0.19 | I 0.284

Reference: the Human Domainome abundance scans (Beltran et al. 2025)
